The values that follow come from the supplement of paper PMC10724198.

± gives the standard deviation of the averaged measurements.
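Also: PSI is a weighted mean of sequencing reads over stability bins, variants kept only with over 10 reads, mCherry proximal and sfGFP distal, peptide attached via GGGS linker.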

The test system of this data set is Saccharomyces cerevisiae. The data set is described as follows: protein stability index of tFT-peptide fusion (C-terminal peptide) (PSI (0-1 scale)); higher = more stable (slower turnover). The following applies: genetic background: wild type; temperature: 30 C.
As to LAGGGWGGACGE, the protein stability index was 0.655 ± 0.017. LAGLLMSPNMSP displayed a protein stability index of 0.697 ± 0.025. For LAGVEMWVGLEV the value was 0.61 ± 0.059; for LALKYLGQLIGA, 0.594 ± 0.024; for LALPSWVRYASR, 0.694 ± 0.016. For LALRMLWSIVRT the value was 0.599 ± 0.079; for LAMALRGGLYFS, 0.701 ± 0.011; for LAPALPPQPPSH, 0.658 ± 0.023. For LAPPLPMPPPLA the value was 0.682 ± 0.02. Turning to LAPPPAAPLSHS, the protein stability index came to 0.697 ± 0.018. With LAPPPPARPALP the figure was 0.699 ± 0.0076.

The sequence LAPPTTAGPRPP came in with a protein stability index of 0.599 ± 0.01.

Consider LARASLVLPPSG, for which the protein stability index amounted to 0.648 ± 0.093. For LASPDPSPLVVP the value was 0.678 ± 0.02; for LASSVRSSASVP, 0.739 ± 0.034; for LAYITTTPALAS, 0.581 ± 0.048. As to LCAPPPSLSPFV, the protein stability index stood at 0.708 ± 0.025. For LCCPVFFAFCFP the value was 0.683 ± 0.094; for LCFRSLFLCSLF, 0.577 ± 0.13; for LCFVFDLASLCW, 0.539 ± 0.04.

Sequence LCGPKIGFVVSR had a protein stability index of 0.704 ± 0.04. With LCGVWWGWWVGL the figure was 0.576 ± 0.026; with LCLDNFSSSWPI, 0.719 ± 0.02. In turn, LCPSLLFSSSDP yielded a protein stability index of 0.699 ± 0.024. For LCPVGLGFFVGL the value was 0.666 ± 0.056; for LCRYFLRGVINT, 0.64998 ± 0.00026; for LCTCRLSDVRIG, 0.6748 ± 0.0033.

LDLLIVNFFNLV displayed a protein stability index of 0.69 ± 0.13. The sequence LDLLRCIQHCVV registered a protein stability index of 0.637 ± 0.027. With LDPPHTLPRSAP the figure was 0.70982 ± 0.0002; with LDSSPPCSSNCD, 0.736 ± 0.058; with LDVFSLASRPDG, 0.5928 ± 0.0053. With LDVSGEVRVGRG the figure was 0.629 ± 0.013; with LELADGRCARSG, 0.8 ± 0.065.

In turn, LELTSDWRAYVY showed a protein stability index of 0.643 ± 0.052. With LESSLPIDSERC the figure was 0.675 ± 0.055; with LEVAGVLCSRVC, 0.56 ± 0.016. In turn, LEWGRGFGLWGG displayed a protein stability index of 0.7823 ± 0.004. For LEYRSCDFIDRS the value was 0.625 ± 0.057; for LFAGTFTEYPLS, 0.641 ± 0.078; for LFFLRSSSRGLW, 0.736 ± 0.055. For LFHRAVVGRVRP the value was 0.634 ± 0.013; for LFICETRLDSRY, 0.744 ± 0.13; for LFLYLGSGARAV, 0.721 ± 0.019.

Turning to LFPCPSMTLPRL, the protein stability index was determined as 0.706 ± 0.017.

In the case of LFPFIPPRLPLP, the protein stability index came out at 0.687 ± 0.01.

LFPHSLLPPPFF yielded a protein stability index of 0.73 ± 0.042. For LFPRCPPPPLTT the value was 0.653 ± 0.053; for LFPSSHFSLSLH, 0.767 ± 0.033. For LFPSVCSTSSFS the value was 0.676 ± 0.034.

As to LFQFFSPCRIPE, the protein stability index was 0.749 ± 0.011. Take LFRPSFFFFVCQ: the protein stability index is 0.548 ± 0.0027. With LFRRPLLRPPPF the figure was 0.745 ± 0.024; with LFSHGFLYILGG, 0.696 ± 0.017; with LFSHLLFPWLSR, 0.7545 ± 0.0048. Regarding LFSLPPRASFSL, the protein stability index is 0.773 ± 0.043. For LFTSLYWAFRSR the value was 0.679 ± 0.016; for LGAAFHSLTRLV, 0.617 ± 0.066; for LGAMTQEADGTG, 0.639 ± 0.078. For LGARELTFALLR the value was 0.649 ± 0.0039. Sequence LGCSMSPYFVRF yielded a protein stability index of 0.802 ± 0.074.

In the case of LGFCRLVFGVVG, the protein stability index worked out at 0.522 ± 0.01. For LGFISGCGVFGT, the protein stability index was found to be 0.708 ± 0.026.

As to LGFPLPRTPSIT, the protein stability index was found to be 0.792 ± 0.06. For LGGGGGGGVAGD the value was 0.723 ± 0.069; for LGGGVVCGVWGG, 0.704 ± 0.03; for LGGWLWSPGVVV, 0.6355 ± 0.0056. On to LGILSERIGRAL, for which the protein stability index was found to be 0.7713 ± 0.0036. With LGKSGLTILCRD the figure was 0.5954 ± 0.003; with LGLFGSVVVCGQ, 0.65 ± 0.015; with LGLGSFPLMDLS, 0.738 ± 0.015. With LGLQHPSAWLFP the figure was 0.678 ± 0.045; with LGNANKRPREIK, 0.718 ± 0.032.

As to LGPFSVPCDPHF, the protein stability index was 0.696 ± 0.04. With LGPGGVAWGAWW the figure was 0.7623 ± 0.0022.

In the case of LGPPLLDLASLR, the protein stability index is 0.719 ± 0.035. For LGPRMYKRRDLR the value was 0.724 ± 0.023; for LGRGGAASGRAL, 0.67 ± 0.062. As to LGSSGVVGYHLD, the protein stability index is 0.71 ± 0.054. For LGVGGRWVGPGA the value was 0.722 ± 0.027.
